Source: the nanobody polyreactivity screen of Harvey et al. (2022)

Assay: yeast display, Sf9 membrane polyspecificity reagent, FACS + sequencing; frameworks hold sequencing errors
How it was run: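 A nanobody's polyreactivity label depends on the gate it was sorted from. Yeast display cells were stained with 10% biotinylated, detergent-solubilized Sf9 membrane reagent for 1 hour at 4 °C, enriched on streptavidin microbeads and sorted by FACS. The low and high (top ~1%) gates were set on anti-HA fluorescence for expression and streptavidin fluorescence for reagent binding.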

Sequence | polyreactivity (PSR sort gate)
QVQLVESGGGLVQAGGSLRLSCAASGLTFGSNGMGWYRQAPGKERELVAAISRGGSTSYADSVKGRFTISRDNAKNTVYLQMNSLKPEDTAVYYCAARSYRYSYRYRAFDYWGQGTQVTVSS | high polyreactivity
QVQLVESGGGLVQAGGSLRLICAASGSTFTPYAMGWYRQEPGKERELVAAIRGSGGRTYYADSVKGRFTISRDNAKNTVYLQMNSLKPEDTAVYYCAASWLYTGWGRYDYWGQGTQVTVSS | high polyreactivity
QVQLVESGGGLVQAGGSLRLSCAASGRTFTRYAMGWYRQAPGKERELVAAISRSGGSTHYADSVKGRFTISRDNAKNTVYLQMNSLKPEDTAVYFCNTVGYRGRSNSRFYYWGQGTQVTVSS | high polyreactivity
QVQLVESGGGLVQAGGSLRLSCAASGSSFWSNAMGWYRQAPGKEREFVAAINWSGDNTYYADSVKGRFTISRDNSKNKVYLKLISLKPEDTAVYYCIGVGDYPKYSGGFDYCGQGTQVTVSS | low polyreactivity
QVQLVESGGGLVQAGVSLLISCAASGSTFLLNTMGWYIQAPGKERELVAAISSITGDTYYADSVKVRFTISRDNAKNNDYLQMNSLKPEDTAVYYCAARYYLSSQGWTYDYWGQGTQVTVSS | low polyreactivity
QVQLLESGAGLVQAGGSLRLSCAAYGSTSYDYAMGWYRQAPGKERELVAAISGSSSTTYYADSVKGRFTISRDNAKNTVYLQMNSLKPEDTAVYYCNAVTTSGYGYGYWGQGTQVTVSS | low polyreactivity
QVQLVESGGGLVQAGGSLRLSCAASGSTFDYYTMGWYRQAPGKERELVAAITSGGSTYYADSVKGRFTISRDNAKNTVFLQMNSLKPEDTAVYYCAAGYIWFRKFQFDYWGQGTQVTVSS | high polyreactivity
QVQLVESGGGLVQAGGSLRLTCAASGRTFGTYAMGWSRQAPGKERELVAVITNGGGTYYADSVKGRFTISRDNAKNTVYLQMNSLKPEDTAVYYCNTDRYGLRRWVYSYWGGYDYWGQGTQVTVSS | low polyreactivity
KVQLVESGAGLVQAGGSLRLSCAASGITFGWYAMGWYRQAPGKERELVATINSGGSTNYADSVKGRFTISRDNAQNSVYLQMNSLKAEDTAVYYCAADGLIRWYDYWGQGTQVTVSS | low polyreactivity
QVQLVESGGGLVQAGGSLRLSCAASGSILARYAMGWYRQAPGKERELVAAISSRGGSTYYADSVKGRFTISRDNAKNTVYLQMNSLKPEDTAVYYCAAYVYLQVEYDYWGQGTQVTVSS | low polyreactivity
QVQLVESGGGLVQAGGSLRLSCASSGRIFGSYAMGWYRQAPGKERELVAAISWRGTSTYYADSVKGRFTISRDNAKNTVYLQMNSLKPEDTAVYYCAARGLWPYDYWGQGTQVTVSS | low polyreactivity
QVQLVESGGGLVQAGGSLRLSCAASGSIFTGNTMGWYRQAPGKDRELVATISRRGGSTYYADSVKGRFTITRDNAKYSVYLQMNSLKPEDTAVYYCAARGPYRPPHGDAYYTYGYWGQGTQVTVSS | high polyreactivity
QVQLVESGGGLVQAGGSLRLSCAASGRIFGTYAMGWYRQAPGKERELGAAITQSGGRTYYADSVKGRFTISRDNAKKTDYLQMKSLKPEDTAVYYCNKVTYRGIGLGYDYWGQGTQVTVSS | high polyreactivity
QVQLVESGGGLDQAGGSLRLSCAASGRTFTHNVMGWYRQAPGKEMELVAGISSTGGSTYYADSVKVRFTISRDNAKNTVYLQMNSLKPEDTAVYYCAKQRRSFYDFFHYDYWGLGTQVTVSS | low polyreactivity
QVQLVESGGGLVQAGGSLRLSCAASGSNFAYNAMGWYRQAPGKERELVAGITTSGSRTYYADSVKGRFTISRDNAKNTVYLQMNSLKPEDTAVYYCAADPYFYPIYDYWGQGTQVTVSS | low polyreactivity
QVQLVESGGGLVQAGGSLRLSCAASGRIFYPYAMGWYRQAPGIERELVAAIDKGGGSTYYADSVKGRFSISRDNAKNTVYVQMNSLKPEDTAVYYCAAGWEYPYDYWGQGTQVTVSS | low polyreactivity
QVQLVASGGGLVQAGGSLRLSCAASGGTLDYYVMGWYRQAPGKERELVAAISTNGGSTNYADSVKGRFTISRDNAKNTVYLQMNSLKPEDTAVYYCAATSDVYVFLEFDYWGQGTQVTVSS | low polyreactivity
